System: PleI restriction endonuclease (Pseudomonas lemoignei)
Assay: cleavage_in_vitro
Conditions: approximate yield of recombinant PleI; five of six clones active; recognition site not given

Question: Which activity (units/gram of cells) does the source give for “DNA substrate with PleI sites (sequence not stated)” here?
Answer: 100000
